# Experimental data from US20040018971A1.
# T1: HLA-DRB1*0101 (human)
# T1 chain 1: not shown
# T1 chain 2: not shown
# T2: HLA-DRB1*0701 (human)
# T2 chain 1: not shown
# T2 chain 2: not shown
# T3: HLA-DRB1*1302 (human)
# T3 chain 1: not shown
# T3 chain 2: not shown
# T4: HLA-DR3 (human)
# T4 chain 1: not shown
# T4 chain 2: not shown
# T5: HLA-DR3 (DRB1*0301) (human)
# T5 chain 1: not shown
# T5 chain 2: not shown
# T6: HLA-DRB1*1101 (human)
# T6 chain 1: not shown
# T6 chain 2: not shown
# T7: HLA-DR2w2β1 (DRB1*1501) (human)
# T7 chain 1: not shown
# T7 chain 2: not shown
# T8: HLA-DR5w11 (DRB1*1101) (human)
# T8 chain 1: not shown
# T8 chain 2: not shown
# T9: HLA-DR6w19 (DRB1*1302) (human)
# T9 chain 1: not shown
# T9 chain 2: not shown
# T10: HLA-DRB1*0301 (human)
# T10 chain 1: not shown
# T10 chain 2: not shown
# T11: HLA-DR4w4 (DRB1*0401) (human)
# T11 chain 1: not shown
# T11 chain 2: not shown
# T12: HLA-DR7 (DRB1*0701) (human)
# T12 chain 1: not shown
# T12 chain 2: not shown
# Tests used:
# HLA-DRB1*0101 (human) [1] = biological target: T1, HLA-DRB1*0101 (human); test: competition with 125I probe peptide, purified HLA; settings: remark: other sources report otherwise
# HLA-DRB1*0701 (human) [2] = biological target: T2, HLA-DRB1*0701 (human); test: competition with 125I probe peptide, purified HLA; settings: remark: other sources report otherwise
# HLA-DRB1*0101 (human) [3] = biological target: T1, HLA-DRB1*0101 (human); test: inhibition of 125I probe peptide binding to purified HLA-DR, gel filtration; settings: remark: other sources report otherwise
# HLA-DRB1*0701 (human) [4] = biological target: T2, HLA-DRB1*0701 (human); test: as above; settings: remark: other sources report otherwise
# HLA-DRB1*1302 (human) = biological target: T3, HLA-DRB1*1302 (human); test: as above; settings: remark: other sources report otherwise
# HLA-DR3 (human) = biological target: T4, HLA-DR3 (human); test: competitive inhibition of 125I-labeled probe peptide binding to purified HLA-DR3; settings: remark: other sources report otherwise
# HLA-A*0101 (human) [5] = test: competition with 125I-labelled probe peptide for purified HLA-A*0101, gel filtration; settings: remark: other sources report otherwise; scale: ratio
# [6] = biological target: HLA-A*0101 (purified HLA class I molecule) (human); test: competition with 125I-labelled standard peptide on purified HLA-A*0101, gel filtration; settings: remark: other sources report otherwise
# HLA-A*1101 (human) [7] = test: inhibition of 125I-labelled probe peptide binding to purified HLA-A*1101, gel filtration; settings: remark: other sources report otherwise
# HLA-A*0101 (human) [8] = test: competition with 125I-labelled probe peptide for purified HLA-A*0101, gel filtration; relative to standard peptide; settings: remark: other sources report otherwise
# HLA-A*0301 (human) [9] = test: inhibition of 125I-labelled probe peptide binding to purified HLA-A*0301, gel filtration; ratio to standard peptide 941.12 ([..], 11 nM); settings: remark: other sources report otherwise
# [10] = biological target: T5, HLA-DR3 (DRB1*0301) (human); test: competition binding assay, purified HLA, 125I-labelled probe peptide, gel filtration; settings: remark: other sources report otherwise
# [11] = biological target: T5, HLA-DR3 (DRB1*0301) (human); test: competition with 125I-labelled probe peptide on purified HLA-DR, gel filtration; IC50 of standard peptide / IC50 of test peptide; settings: remark: other sources report otherwise
# HLA-A*0101 (human) [12] = test: competition with 125I-labelled probe peptide for purified HLA-A*0101, gel filtration; ratio = IC50 of standard peptide 944.02 / IC50 of test peptide; settings: remark: other sources report otherwise
# HLA-A*0201 (human) [13] = test: competition for purified HLA vs 125I-labelled probe peptide, gel filtration; settings: remark: other sources report otherwise
# HLA-A*0201 (human) [14] = test: competitive inhibition of 125I-labeled probe peptide binding to purified HLA-A*0201; settings: remark: other sources report otherwise
# HLA-A*3101 (human) = test: competition with 125I-labelled standard peptide for purified HLA; gel filtration; settings: remark: other sources report otherwise
# HLA-A*6802 (human) [15] = test: competition for purified HLA vs 125I-labelled probe peptide, gel filtration; settings: remark: other sources report otherwise
# HLA-A*6802 (human) [16] = test: competition with 125I probe peptide for purified HLA; settings: remark: other sources report otherwise
# HLA-A*1101 (human) [17] = test: competitive inhibition of 125I-labeled probe peptide binding to purified HLA-A*1101, gel filtration; settings: remark: other sources report otherwise; scale: ratio
# HLA-DRB1*1101 (human) [18] = biological target: T6, HLA-DRB1*1101 (human); test: inhibition of 125I probe peptide binding to purified HLA-DR, gel filtration; settings: remark: other sources report otherwise
# HLA-DRB1*0101 (human) [19] = biological target: T1, HLA-DRB1*0101 (human); test: competition with 125I-labelled standard peptide, purified HLA-DR, gel filtration; settings: remark: other sources report otherwise
# HLA-DRB1*1101 (human) [20] = biological target: T6, HLA-DRB1*1101 (human); test: as above; settings: remark: other sources report otherwise
# [21] = biological target: T7, HLA-DR2w2β1 (DRB1*1501) (human); test: competition binding assay, purified HLA, 125I-labelled probe peptide, gel filtration; settings: remark: other sources report otherwise
# [22] = biological target: T8, HLA-DR5w11 (DRB1*1101) (human); test: as above; settings: remark: other sources report otherwise
# [23] = biological target: T9, HLA-DR6w19 (DRB1*1302) (human); test: as above; settings: remark: other sources report otherwise
# HLA-B*5301 (human) = test: competition vs 125I-labeled standard peptide, purified HLA; settings: remark: other sources report otherwise
# HLA-B*5401 (human) = test: as above; settings: remark: other sources report otherwise
# HLA-A*0201 (human) [24] = test: inhibition of 125I-labelled probe peptide binding to purified HLA, gel filtration; settings: remark: other sources report otherwise; scale: ratio
# HLA-DRB1*0301 (human) = biological target: T10, HLA-DRB1*0301 (human); test: competition with 125I-labeled standard peptide, purified HLA-DR, gel filtration; settings: remark: other sources report otherwise
# HLA-B*0702 (human) = test: competition with 125I-labelled probe peptide for purified HLA, gel filtration; settings: scale: ratio
# HLA-A*1101 (human) [25] = test: competition with 125I-labelled probe peptide for purified HLA-A*1101, gel filtration; standard peptide 940.06 [..] (6.0 nM); settings: remark: other sources report otherwise; scale: ratio
# HLA-A*0301 (human) [26] = test: inhibition of 125I-labelled probe peptide binding to purified HLA-A*0301, gel filtration; ratio to standard peptide 941.12 [..] (11 nM); settings: remark: other sources report otherwise
# [27] = biological target: T11, HLA-DR4w4 (DRB1*0401) (human); test: competition with 125I-labelled probe peptide on purified HLA-DR, gel filtration; IC50 of standard peptide / IC50 of test peptide; settings: remark: other sources report otherwise
# [28] = biological target: T12, HLA-DR7 (DRB1*0701) (human); test: as above; settings: remark: other sources report otherwise
# HLA-A*6802 (human) [29] = test: competition with 125I-labelled probe peptide for purified HLA, gel filtration; settings: remark: other sources report otherwise
binder,measurement,setting,value
LSVFQNLQVIRGRIL [Her2/neu.422],IC50,HLA-DRB1*0101 (human) [1],28 nM
same,IC50,HLA-DRB1*0701 (human) [2],86 nM
same,IC50,HLA-DRB1*0101 (human) [3],28 nM
same,IC50,HLA-DRB1*0701 (human) [4],86 nM
ETELRKVKVLGSGAF [Her2/neu.717],IC50,HLA-DRB1*1302 (human),2500 nM
WDQLFRNPHQALLHT [Her2/neu.482],IC50,HLA-DR3 (human),< 1000 nM
TVQLVTQLMPYGCLL [Her2/neu.793],IC50,HLA-DRB1*0101 (human) [1],22 nM
same,IC50,HLA-DRB1*0701 (human) [2],2500 nM
same,IC50,HLA-DRB1*0101 (human) [3],22 nM
same,IC50,HLA-DRB1*0701 (human) [4],2500 nM
"FSPAFDNLYY [HER2/neu peptide, position 1213, 10 amino acids]",relative binding ratio,HLA-A*0101 (human) [5],5.5
same,relative binding ratio (IC50 of standard peptide / IC50 of test peptide),[6],5.5
same,relative binding ratio (IC50 of standard peptide / IC50 of test peptide) (relative binding ratio),HLA-A*1101 (human) [7],0.001
same,relative binding ratio (IC50 of standard peptide / IC50 of test peptide) (relative binding ratio),HLA-A*0101 (human) [8],5.5
same,relative binding ratio (IC50 of standard peptide / IC50 of test peptide),HLA-A*0301 (human) [9],0.0005
FRELVSEFSRMARDP [HER2/neu peptide … (position 969)],relative binding ratio (ratio to standard peptide),[10],0.071
same,relative binding ratio,[11],0.071
"FTHQSDVWSY [HER2/neu peptide, position 899, 10 amino acids]",relative binding ratio,HLA-A*0101 (human) [5],2.7
same,relative binding ratio (IC50 of standard peptide / IC50 of test peptide) (relative binding ratio),HLA-A*1101 (human) [7],0.0005
same,relative binding ratio (IC50 of standard peptide / IC50 of test peptide) (relative binding ratio),HLA-A*0101 (human) [8],2.7
same,relative binding ratio (IC50 of standard peptide / IC50 of test peptide),HLA-A*0301 (human) [9],0.0003
same,relative binding ratio,HLA-A*0101 (human) [12],2.7
VMAGVGSPYV [Her2/neu.773],IC50,HLA-A*0201 (human) [13],200 nM
same,IC50,HLA-A*0201 (human) [14],< 500 nM
LVARNVLVK (modifications not checked) [Her2/neu.846.V2],IC50,HLA-A*3101 (human),9000 nM
CLTSTVQLV [Her2/neu.789],IC50,HLA-A*6802 (human) [15],8000 nM
same,IC50,HLA-A*0201 (human) [14],< 500 nM
CLTSTVQLV [Her2/neu.789 …],IC50,HLA-A*6802 (human) [16],8000 nM
"CMQIAKGMSY [HER2/neu peptide, position 826, 10 amino acids]",relative binding ratio,HLA-A*0101 (human) [5],0.3
same,relative binding ratio (IC50 of standard peptide / IC50 of test peptide),[6],0.3
same,relative binding ratio,HLA-A*1101 (human) [17],0.0001
same,relative binding ratio (IC50 of standard peptide / IC50 of test peptide) (relative binding ratio),HLA-A*0101 (human) [8],0.3
VWELMTFGAKPYDGI [Her2/neu.912],IC50,HLA-DRB1*0101 (human) [1],58 nM
same,IC50,HLA-DRB1*0101 (human) [3],58 nM
same,IC50,HLA-DRB1*1101 (human) [18],3700 nM
same,IC50,HLA-DRB1*0101 (human) [19],58 nM
same,IC50,HLA-DRB1*1101 (human) [20],3700 nM
CWMIDSECRPRFREL [HER2/neu peptide … (position 958)],relative binding ratio (ratio to standard peptide),[21],-0.0006
same,relative binding ratio (ratio to standard peptide),[22],-0.0008
same,relative binding ratio (ratio to standard peptide),[23],-0.0001
"KPYDGIPA [Her2/neu.921, 8-mer]",IC50,HLA-B*5301 (human),490 nM
same,IC50,HLA-B*5401 (human),29 nM
"TLQGLGISWL [HER2/neu peptide, position 444, 10 amino acids]",relative binding ratio,HLA-A*0201 (human) [24],0.0011
VVLGVVFGI [Her2/neu.665 …],IC50,HLA-A*6802 (human) [16],2000 nM
VLGVVFGILIKRRQQ [Her2/neu.666],IC50,HLA-DRB1*1101 (human) [18],43 nM
same,IC50,HLA-DRB1*1101 (human) [20],43 nM
LLDHVRENR [Her2/neu.806],IC50,HLA-A*3101 (human),500 nM
"VLVKSPNHV [HER2/neu peptide, position 851, 9 amino acids]",relative binding ratio,HLA-A*0201 (human) [24],0.0002
PESFDGDPASNTAPL [HER2/neu DR supermotif exemplary peptide … (position 378)],relative binding ratio (ratio (standard IC50 / test IC50)),HLA-DRB1*0301 (human),-0.0027
"GPKHSDCLA [HER2/neu peptide, position 246, 9 amino acids]",relative binding ratio,HLA-B*0702 (human); remark: other sources report otherwise,0.0001
"LLDIDETEY [HER2/neu peptide, position 869, 9 amino acids]",relative binding ratio,HLA-A*0101 (human) [5],7.6
same,relative binding ratio (IC50 of standard peptide / IC50 of test peptide) (relative binding ratio),HLA-A*0101 (human) [8],7.6
same,relative binding ratio,HLA-A*1101 (human) [25],0.0001
same,relative binding ratio (IC50 of standard peptide / IC50 of test peptide),HLA-A*0301 (human) [26],0.0003
same,relative binding ratio,HLA-A*0101 (human) [12],7.6
"LPQPPICTIDV (modifications not checked) [HER2/neu peptide, position 941, 11 amino acids]",relative binding ratio,HLA-B*0702 (human),0.0032
SRLLGICLTSTVQLV [Her2/neu.783],IC50,HLA-DRB1*0101 (human) [1],14 nM
same,IC50,HLA-DRB1*0101 (human) [3],14 nM
same,IC50,HLA-DRB1*0101 (human) [19],14 nM
GVTVWELMTFGAKPY [HER2/neu peptide … (position 909)],relative binding ratio,[27],0.033
same,relative binding ratio,[28],0.017
VVLGVVFGI [Her2/neu.665],IC50,HLA-A*6802 (human) [15],2000 nM
same,IC50,HLA-A*6802 (human) [29],2000 nM
same,IC50,HLA-A*0201 (human) [14],< 500 nM
"TLSPGKNGV [HER2/neu peptide, position 1172, 9 amino acids]",relative binding ratio,HLA-A*0201 (human) [24],0.0002
CYGLGMEHLREVRAV [HER2/neu peptide … (position 342)],relative binding ratio (ratio to standard peptide),[10],0.0083
same,relative binding ratio,[11],0.0083
ASPLTSIISAVVGIL [Her2/neu.648],IC50,HLA-DRB1*1302 (human),73 nM
